As a reminder, the EC50 is the concentration at which the effect is half-maximal. High values mean lower potency in that assay, low ones higher potency in that assay.

Residue numbers refer to the chain shown, from its start.

The values that follow come from patent US20260049160A1 (Hoffmann-La Roche, published 2026).

First the molecules themselves.
T1: human VEGF-A-121-His (human, UniProt P15692-9 27-147)
T1 construct: also called VEFG-A-121-His; not shown: His tag
T1 sequence (looked up): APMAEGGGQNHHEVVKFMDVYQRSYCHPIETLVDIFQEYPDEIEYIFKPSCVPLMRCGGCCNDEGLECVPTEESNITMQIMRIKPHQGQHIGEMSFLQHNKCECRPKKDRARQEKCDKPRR

T2: human Ang-2-RBD-Fc (human, UniProt O15123 275-496, limits assumed)
T2 construct: domain: RBD; not shown: Fc part
T2 sequence (looked up): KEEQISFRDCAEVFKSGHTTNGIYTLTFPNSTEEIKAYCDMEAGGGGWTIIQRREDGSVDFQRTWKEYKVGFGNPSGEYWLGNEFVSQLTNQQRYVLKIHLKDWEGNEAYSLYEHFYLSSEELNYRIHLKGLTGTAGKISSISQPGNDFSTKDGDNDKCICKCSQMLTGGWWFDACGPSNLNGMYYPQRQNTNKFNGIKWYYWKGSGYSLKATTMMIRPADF

B1: DR5TAA-0077 (bispecific antibody, human IgG1, kappa)
light 1: not shown
heavy: not shown
light 2: EIVLTQSPGTLSLSPGERATLSCRASQSVSRSYLAWYQQKPGQAPRLLIIGASTRATGIPDRFSGSGSGTDFTLTISRLEPEDFAVYYCQQGQVIPPTFGQGTKVEIKRTVAAPSVFIFPPSDEQLKSGTASVVCLLNNFYPREAKVQWKVDNALQSGNSQESVTEQDSKDSTYSLSSTLTLSKADYEKHKVYACEVTHQGLSSPVTKSFNRGEC
notes: Tetravalent 2+2: DR5 core antibody (VH/VL crossover on DR5) with two FAP Fabs fused to the HC C-termini; wild type CH1/CL interface; also called DR5TAA-0077 (control)
B2: DR5TAA-0078 (bispecific antibody)
light 1: EIVLTQSPGTLSLSPGERATLSCRASQSVSSSYLAWYQQKPGQAPRLLIYGASSRATGIPDRFSGSGSGTDFTLTISRLEPEDFAVYYCQQGTTHPITFGQGTKVEIKSSASTKGPSVFPLAPSSKSTSGGTAALGCLVKDYFPEPVTVSWNSGALTSGVHTFPAVLQSSGLYSLSSVVTVPSSSLGTQTYICNVNHKPSNTKVDKKVEPKSCD
heavy: not shown
light 2: B1 light 2
notes: Tetravalent 2+2: DR5 core antibody with CH1-CL crossover on DR5 (instead of VH/VL), two FAP Fabs fused to the HC C-termini; wild type CH1/CL interface; also called DR5TAA-0078 (control)
B3: DR5TAA-0082 (bispecific antibody, human IgG1, kappa, L234A L235A)
light 1: B1 light 2 with R31S, I50Y, T54S, Q93T, V94T, I95H, P97I, E124R, Q125K
heavy: not shown
light 2: EVQLLESGGGLVQPGGSLRLSCAASGFTFSSHAMSWVRQAPGKGLEWVSAIWASGEQYYADSVKGRFTISRDNSKNTLYLQMNSLRAEDTAVYYCAKGWLGNFDYWGQGTLVTVSSASVAAPSVFIFPPSDEELKSGTASVVCLLNNFYPREAKVQWKVDNALQSGNSQESVTEQDSKDSTYSLSSTLTLSKADYEKHKVYACEVTHQGLSSPVTKSFNRGEC
notes: Tetravalent 2+2, VH/VL crossover on FAP
B4: DR5TAA-0083 (bispecific antibody, human IgG1, kappa, L234A L235A)
light 1: not shown
heavy: not shown
light 2: B1 light 2 with E124R, Q125K
notes: Tetravalent 2+2, VH/VL crossover on DR5
B5: DR5TAA-0081 (bispecific antibody, human IgG1, kappa, L234A L235A)
light 1: B3 light 2 with E133Q
heavy: not shown
light 2: B1 light 2 with R31S, I50Y, T54S, Q93T, V94T, I95H, P97I
notes: Tetravalent 2+2: DR5 core antibody with two VH/VL-crossed FAP Fabs fused to the HC C-termini; wild type CH1/CL interface; the set of three chains is the same; also called DR5TAA-0081 (control)
B6: Chimeric TIM3-0018 (antibody, V domains shown)
VH: QVTLKESGPGILQPSQTLSLTCSFSGFSLSTSGMSVGWIRQPSGKGLEWLAHIWLNDDVFFNPALKRRLTISKDTSNNQVFLQIASVVTADTATYYCVRANGYLYALDYWGQGISVTVSS
VL: QIVLTQSPAIMSASPGQKVTITCSASSSVNYTQWYQQKLGSSPKLWIYDAFKLAPGVPARFSGSGTGTSYSLTISSMEAEDAASYFCHQWSSYPWTFGGGTKLEIK
notes: Bivalent IgG; also called TIM3 IgG (bivalent); copies: 2 + 2
B7: Chimeric TIM3-0028 (antibody, V domains shown)
VH: EVQLQQSVAELVRPGASVKLSCTASGFNIKTTYMHWVKQRPEQGLEWIGRIDPADDNTKYAPKFQGKATITADTSSNTAYLQLSSLTSEDAAIYYCVRDFGYVAWFAYWGQGTLVTFSA
VL: NIVMTPTPKFLPVSSGDRVTMTCRASQSVDNYVAWYQQKPGQSPKLLIYYASNRYIGVPDRFTGSGSGTDFTFTISSVQVEDLAVYFCQQHYSSPYTFGSGTKLEIK
notes: as for B6
B8: Ang2VEGF-0273 (bispecific antibody, human IgG1, kappa)
light 1: QPGLTQPPSVSVAPGQTARITCGGNNIGSKSVHWYQQKPGQAPVLVVYDDSDRPSGIPERFSGSNSGNTATLTISRVEAGDEADYYCQVWDSSSDHYVFGTGTKVTVLRTVAAPSVFIFPPSDEQLKSGTASVVCLLNNFYPREAKVQWKVDNALQSGNSQESVTEQDSKDSTYSLSSTLTLSKADYEKHKVYACEVTHQGLSSPVTKSFNRGEC
heavy 1: not shown
heavy 2: not shown
light 2: EVQLVESGGGLVQPGGSLRLSCAASGYTFTNYGMNWVRQAPGKGLEWVGWINTYTGEPTYAADFKRRFTFSLDTSKSTAYLQMNSLRAEDTAVYYCAKYPHYYGSSHWYFDVWGQGTLVTVSSASVAAPSVFIFPPSDEQLKSGTASVVCLLNNFYPREAKVQWKVDNALQSGNSQESVTEQDSKDSTYSLSSTLTLSKADYEKHKVYACEVTHQGLSSPVTKSFNRGEC
notes: Bivalent CrossMab, non-crossed ANG2 arm and VH/VL-crossed VEGF arm; wild type CH1/CL interface (control)
B9: Ang2VEGF-0283 (bispecific antibody, human IgG1, lambda)
light 1: QPGLTQPPSVSVAPGQTARITCGGNNIGSKSVHWYQQKPGQAPVLVVYDDSDRPSGIPERFSGSNSGNTATLTISRVEAGDEADYYCQVWDSSSDHYVFGTGTKVTVLGQPKAAPSVTLFPPSSKKLQANKATLVCLISDFYPGAVTVAWKADSSPVKAGVETTTPSKQSNNKYAASSYLSLTPEQWKSHRSYSCQVTHEGSTVEKTVAPTECS
heavy 1: not shown
heavy 2: not shown
light 2: B8 light 2
notes: Bivalent CrossMab; knobs-into-holes
B10: Ang2VEGF-0274 (bispecific antibody, human IgG1, kappa)
light 1: B8 light 1 with E124K, Q125K
heavy 1: not shown
heavy 2: not shown
light 2: B8 light 2
notes: as for B9
B11: Ang2VEGF-0282 (bispecific antibody, human IgG1, kappa)
light 1: B8 light 1 with E124K, Q125R
heavy 1: not shown
heavy 2: not shown
light 2: B8 light 2 with Q140E
notes: as for B9
B12: Ang2VEGF-0395 (bispecific antibody, human IgG1, kappa)
light 1: B8 light 1 with E124K
heavy 1: not shown
heavy 2: not shown
light 2: B8 light 2
notes: as for B9
B13: Ang2VEGF-0286 (bispecific antibody, human IgG1, kappa)
light 1: B8 light 1 with E124K, Q125K
heavy 1: not shown
heavy 2: not shown
light 2: B8 light 2 with Q140E
notes: as for B9
B14: Ang2VEGF-0284 (bispecific antibody, human IgG1, kappa)
light 1: B8 light 1 with E124K, Q125R
heavy 1: not shown
heavy 2: not shown
light 2: B8 light 2
notes: as for B9
B15: Ang2VEGF-0285 (bispecific antibody, human IgG1, kappa)
light 1: B8 light 1 with E124K, Q125R
heavy 1: not shown
heavy 2: not shown
light 2: B8 light 2 with Q140E
notes: as for B9
B16: Ang2VEGF-0394 (bispecific antibody, human IgG1, kappa)
light 1: B8 light 1 with E124K
heavy 1: not shown
heavy 2: not shown
light 2: B8 light 2
notes: as for B9
B17: Ang2VEGF-0396 (bispecific antibody, human IgG1, kappa)
light 1: B8 light 1 with Q125K
heavy 1: not shown
heavy 2: not shown
light 2: B8 light 2
notes: as for B9
B18: Ang2VEGF-0397 (bispecific antibody, human IgG1, kappa)
light 1: B8 light 1 with Q125K
heavy 1: not shown
heavy 2: not shown
light 2: B8 light 2
notes: as for B9

T3 sequence (Q12884 26-760 limits assumed): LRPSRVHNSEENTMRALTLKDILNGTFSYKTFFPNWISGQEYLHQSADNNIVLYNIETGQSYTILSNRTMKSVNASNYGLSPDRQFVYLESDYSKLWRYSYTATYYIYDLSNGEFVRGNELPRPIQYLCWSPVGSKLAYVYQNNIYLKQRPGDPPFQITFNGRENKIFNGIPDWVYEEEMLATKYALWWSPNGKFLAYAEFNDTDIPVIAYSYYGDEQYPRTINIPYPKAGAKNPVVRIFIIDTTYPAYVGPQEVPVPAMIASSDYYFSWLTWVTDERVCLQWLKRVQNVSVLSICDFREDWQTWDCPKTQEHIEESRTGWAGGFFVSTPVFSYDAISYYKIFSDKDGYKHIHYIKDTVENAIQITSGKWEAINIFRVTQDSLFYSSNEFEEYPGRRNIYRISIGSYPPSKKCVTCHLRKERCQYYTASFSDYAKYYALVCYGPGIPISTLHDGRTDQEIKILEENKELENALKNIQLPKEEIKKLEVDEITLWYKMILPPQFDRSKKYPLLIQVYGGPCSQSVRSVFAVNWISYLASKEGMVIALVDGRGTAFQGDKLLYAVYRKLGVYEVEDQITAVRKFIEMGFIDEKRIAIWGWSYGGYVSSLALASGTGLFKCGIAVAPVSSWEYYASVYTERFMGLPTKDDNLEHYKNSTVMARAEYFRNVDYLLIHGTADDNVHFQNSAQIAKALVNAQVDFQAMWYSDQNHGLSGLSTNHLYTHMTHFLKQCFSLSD

One assay has as its target T3, human FAP (human, UniProt Q12884 26-760).
T3 construct: also called hFAP
The assay can be described thus: SPR (Biacore), antibody captured via anti-human IgG Fc, 5 ug/ml human FAP injected alone for 180 s.
Description: Therefore a <Fc> capturing IgG is immobilized on the chip surface and the different DR5TAA CrossMAbs is captured. In the experiment the targets DR5 and FAP were either added individually or simultaneously to the captured CrossMAb.
With B1, the “FAP signal [RU max]” value is 41.9 RU.

In the case of B2, the “FAP signal [RU max]” value was 38.4 RU. Turning to B3, the “FAP signal [RU max]” value amounted to 7.4 RU. On to B4, for which the “FAP signal [RU max]” value was determined as 18.5 RU.

For B5, the “FAP signal [RU max]” value stood at 7.2 RU.

Another assay deals with T4, biotinylated PD1-ECD-AviHis (human, UniProt Q15116 25-170, biotinylated (Avi tag)).
T4 construct: extracellular domain; also called huPD1; hu PD1; not shown: Avi and His tags
Briefly: ELISA on biotinylated PD1-ECD-AviHis.
In the case of B6, the binding result is listed as “no binding”. For the molecule B7, the binding result was “no binding”.

The target in a further assay is T1, human VEGF-A-121-His. The assay can be described thus: SPR (Biacore T200), VEGF-A-121-His captured via anti-His, antibody in solution, 1:1 Langmuir. A general note: In SPR one partner is held on a chip, and binding of the other changes the refractive index at the surface.
Protocol: HBS-N (10 mM HEPES, 150 mM NaCl pH 7.4, GE Healthcare) was used as running buffer during the immobilization procedure. For the following kinetic characterization, sample and running buffer was PBS-T (10 mM phosphate buffered saline including 0.05% Tween® 20) at pH 7.4. The flow cell was set to 25° C.—and the sample block set to 12° C.—and primed with running buffer twice prior to kinetic characterization.
The association was measured by injection of the indicated antibodies in various concentrations in solution for 180 sec at a flow of 30 μl/min starting with 1000 nM in 1:3 serial dilutions. The dissociation phase was monitored for up to 600 sec and triggered by switching from the sample solution to running buffer. The surface was regenerated by 60 sec washing with a Glycine pH 1.5 solution at a flow rate of 30 μl/min. Bulk refractive index differences were corrected by subtracting the response obtained from a anti His antibody surface. Blank injections are also subtracted (=double referencing). For calculation of KD and other kinetic parameters the Langmuir 1:1 model was used.
The molecule B8 had a Kd of 6 nM. Still for that read-out and setting: the result for B9 reads 4 nM. In turn, B10 had a Kd of 3 nM. The same measure, in the same setting: the result for B11 reads 4 nM. In turn, B12 gave a Kd of 4 nM.

For the molecule B13, the Kd came to 4 nM. Turning to B14, the Kd was found to be 4 nM. On the same count and under the same terms, the result for B15 reads 4 nM; that for B16, 3 nM; that for B17, 3 nM.

Take B18: the Kd is 4 nM.

Another assay deals with T5, biotinylated Tim3-ECD-AviHis (human, UniProt Q8TDQ0 22-202, biotinylated (Avi tag)).
T5 construct: extracellular domain; also called huTIM3; hu Tim3; not shown: Avi and His tags
Briefly: ELISA, biotinylated Tim3-ECD-AviHis on streptavidin plates. For orientation: ELISA stands for enzyme-linked immunosorbent assay.
As for B6, the EC50 was determined as 0.15 nM.

Another assay deals with T2, human Ang-2-RBD-Fc. The assay can be described thus: SPR (Biacore T200), antibody captured via anti-human F(ab')2, Ang2-RBD-Fc in solution, apparent KD, 1:1 Langmuir.
Protocol: Binding of indicated antibodies to human Ang-2-RBD-Fc was investigated by surface plasmon resonance using a BIACORE™ T200 instrument (GE Healthcare). […] HBS-N (10 mM HEPES, 150 mM NaCl pH 7.4, GE Healthcare) was used as running buffer during the immobilization procedure. For the following kinetic characterization, sample and running buffer was PBS-T (10 mM phosphate buffered saline including 0.05% Tween® 20) at pH 7.4. The flow cell was set to 25° C.—and the sample block set to 12° C.—and primed with running buffer twice prior to kinetic characterization.
The bispecific antibody was captured by injecting a 5 nM solution for 25 sec at a flow of 5 μl/min. The association was measured by injection of human Ang2-RBD-Fc in various concentrations in solution for 120 sec at a flow of 30 μl/min starting with 100 nM in 1:3 serial dilutions. The dissociation phase was monitored for up to 180 sec and triggered by switching from the sample solution to running buffer. The surface was regenerated by 60 sec washing with a Glycine pH 2.1 solution at a flow rate of 30 μl/min. Bulk refractive index differences were corrected by subtracting the response obtained from a goat anti human F(ab′)₂ surface. Blank injections are also subtracted (=double referencing). For calculation of apparent KD the Langmuir 1:1 model was used.
For the molecule B8, the Kd is 15 nM. With B9, the Kd amounted to 15 nM. B10: the Kd came to 17 nM. Regarding B11, the Kd was determined as 14 nM. For the molecule B12, the Kd stood at 15 nM. Take B13: the Kd amounted to 12 nM.

Take B14: the Kd came to 13 nM. Regarding B15, the Kd came out at 14 nM. In the case of B16, the Kd stood at 12 nM. As to B17, the Kd was 17 nM.

B18: the Kd amounted to 14 nM.
